Results on four molecules are retold here after publication PMC9482650, “Quantitative fragmentomics allow affinity mapping of interactomes” (Nature Communications, 2022).

The pKd is −log10 of the Kd, conventionally taken in molar units.

What all share (experiment): holdup assay
Design in all cases: key: below the threshold = too weak to quantify, mostly under pKd 3.1 to 4
Holding throughout (conditions): plain residues with an end cap or a label only (N-terminal biotin on a linker: ado-ado)

The target in assay [1] is T1, TIAM2, Q8IVF5.
T1 sequence (Q8IVF5 885-986, limits assumed, looked up): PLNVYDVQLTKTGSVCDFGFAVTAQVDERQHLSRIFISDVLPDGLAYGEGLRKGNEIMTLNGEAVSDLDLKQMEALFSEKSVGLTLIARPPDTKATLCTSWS

Assay [2] concerns the target T2, PDZD7_3, Q9H5P4.
T2 sequence (Q9H5P4 857-944, limits assumed, looked up): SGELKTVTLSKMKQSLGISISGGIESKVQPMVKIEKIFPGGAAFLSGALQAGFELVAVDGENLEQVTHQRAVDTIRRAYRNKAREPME

The target in assay [3] is PDLIM1, O00151.
Sequence of PDLIM1, O00151 (O00151 1-87): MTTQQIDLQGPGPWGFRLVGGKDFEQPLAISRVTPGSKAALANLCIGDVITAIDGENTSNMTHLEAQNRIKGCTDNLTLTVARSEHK
The target of assay [4] is MAGI2_2, Q86UL8.
Sequence of MAGI2_2, Q86UL8 (Q86UL8 410-522): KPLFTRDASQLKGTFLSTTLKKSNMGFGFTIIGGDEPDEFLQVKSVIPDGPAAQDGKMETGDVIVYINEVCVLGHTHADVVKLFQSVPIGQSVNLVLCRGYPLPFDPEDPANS
In assay [5] the target is GRIP2_7, Q9C0E4.
Sequence of GRIP2_7, Q9C0E4 (Q9C0E4 934-1023): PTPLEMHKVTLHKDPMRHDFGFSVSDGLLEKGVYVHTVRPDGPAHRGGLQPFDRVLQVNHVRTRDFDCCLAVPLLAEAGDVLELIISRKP
For assay [6], the target named is PARD3_3, Q8TEW0.
Sequence of PARD3_3, Q8TEW0 (Q8TEW0 582-685): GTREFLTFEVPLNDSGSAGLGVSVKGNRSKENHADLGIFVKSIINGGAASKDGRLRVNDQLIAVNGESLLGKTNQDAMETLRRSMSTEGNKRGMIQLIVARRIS
Assay [7] deals with T3, GRIP1_4, Q9Y3R0.
T3 sequence (Q9Y3R0 467-571, limits assumed, looked up): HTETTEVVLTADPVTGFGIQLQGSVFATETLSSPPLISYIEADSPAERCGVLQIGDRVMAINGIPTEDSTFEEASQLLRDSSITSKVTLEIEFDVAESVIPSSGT

In assay [8] the target is T4, PTPN13_1, Q12923.
T4 sequence (Q12923 1088-1188, limits assumed, looked up): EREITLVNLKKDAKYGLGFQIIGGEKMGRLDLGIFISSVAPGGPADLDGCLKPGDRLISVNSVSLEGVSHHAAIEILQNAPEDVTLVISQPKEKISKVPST

Assay [9] concerns the target T5, DFNB31_3, Q9P202.
T5 sequence (Q9P202 811-907, limits assumed, looked up): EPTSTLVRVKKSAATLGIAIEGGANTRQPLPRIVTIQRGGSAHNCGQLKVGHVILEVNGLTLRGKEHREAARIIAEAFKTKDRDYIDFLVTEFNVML

Assay [10] addresses T6, DFNB31_1, Q9P202.
T6 sequence (Q9P202 135-233, limits assumed, looked up): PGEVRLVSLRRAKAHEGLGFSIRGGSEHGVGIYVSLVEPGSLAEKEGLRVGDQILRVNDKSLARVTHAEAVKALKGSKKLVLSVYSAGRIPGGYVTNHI

Assay [11] concerns the target T7, SNTA1, Q13424.
T7 sequence (Q13424 82-180, limits assumed, looked up): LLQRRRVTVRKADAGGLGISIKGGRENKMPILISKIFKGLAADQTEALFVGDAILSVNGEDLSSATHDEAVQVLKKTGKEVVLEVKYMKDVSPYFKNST

For assay [12], the target named is SCRIB_1, Q14160.
Sequence of SCRIB_1, Q14160 (Q14160 718-814): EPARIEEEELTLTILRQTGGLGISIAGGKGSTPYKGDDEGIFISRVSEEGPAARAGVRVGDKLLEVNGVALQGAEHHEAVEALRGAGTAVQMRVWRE
The target of assay [13] is LDB3, O75112.
Sequence of LDB3, O75112 (O75112 1-94): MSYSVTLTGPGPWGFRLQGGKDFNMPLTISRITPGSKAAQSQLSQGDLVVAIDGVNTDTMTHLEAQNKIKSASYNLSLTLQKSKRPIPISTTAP
The target of assay [14] is T8, LIN7A, O14910.
T8 sequence (O14910 103-200, limits assumed, looked up): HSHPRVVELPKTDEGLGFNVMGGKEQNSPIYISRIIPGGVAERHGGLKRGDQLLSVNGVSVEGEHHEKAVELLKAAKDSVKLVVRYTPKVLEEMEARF

Assay [15] has as its target T9, DFNB31_2, Q9P202.
T9 sequence (Q9P202 274-371, limits assumed, looked up): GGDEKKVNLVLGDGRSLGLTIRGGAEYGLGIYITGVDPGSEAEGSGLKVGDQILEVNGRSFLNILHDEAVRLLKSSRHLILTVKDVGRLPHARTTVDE

Assay [16] concerns the target FRMPD3, Q5JV73.
Assay [17] addresses T10, LIN7B, Q9HAP6.
T10 sequence (Q9HAP6 88-185, limits assumed, looked up): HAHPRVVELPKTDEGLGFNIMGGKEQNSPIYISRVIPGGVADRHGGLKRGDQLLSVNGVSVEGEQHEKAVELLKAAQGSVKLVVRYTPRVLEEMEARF

Assay [18] concerns the target T11, DVL3, Q92997.
T11 sequence (Q92997 244-331, limits assumed, looked up): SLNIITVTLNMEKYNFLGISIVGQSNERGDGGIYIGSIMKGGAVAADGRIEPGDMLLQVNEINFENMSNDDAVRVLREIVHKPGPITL

Assay [19] has as its target T12, CARD11, Q9BXL7.
T12 sequence (Q9BXL7 662-765, limits assumed, looked up): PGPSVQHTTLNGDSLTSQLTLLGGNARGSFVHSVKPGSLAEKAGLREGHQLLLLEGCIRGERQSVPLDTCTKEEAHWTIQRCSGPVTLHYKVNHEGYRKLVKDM

In assay [20] the target is GRASP, Q7Z6J2.
Sequence of GRASP, Q7Z6J2 (Q7Z6J2 96-193): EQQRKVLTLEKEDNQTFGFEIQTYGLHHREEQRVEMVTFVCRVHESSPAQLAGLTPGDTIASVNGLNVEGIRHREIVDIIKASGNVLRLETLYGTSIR
Assay [21] deals with T13, APBA1_1, Q02410.
T13 sequence (Q02410 651-752, limits assumed, looked up): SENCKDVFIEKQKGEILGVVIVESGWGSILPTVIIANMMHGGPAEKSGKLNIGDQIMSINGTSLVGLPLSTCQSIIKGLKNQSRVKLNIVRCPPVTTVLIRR

The target in assay [22] is T14, HTRA3, P83110.
T14 sequence (P83110 354-453, limits assumed, looked up): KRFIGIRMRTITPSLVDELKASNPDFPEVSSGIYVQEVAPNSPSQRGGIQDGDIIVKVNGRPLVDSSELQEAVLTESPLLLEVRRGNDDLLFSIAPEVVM

For assay [23], the target named is DLG4_2, P78352.
Sequence of DLG4_2, P78352 (P78352 155-259): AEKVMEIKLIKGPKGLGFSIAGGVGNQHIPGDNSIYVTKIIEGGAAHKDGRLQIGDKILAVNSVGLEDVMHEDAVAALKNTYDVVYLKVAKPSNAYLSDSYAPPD
For assay [24], the target named is DLG1_2, Q12959.
Sequence of DLG1_2, Q12959 (Q12959 314-412): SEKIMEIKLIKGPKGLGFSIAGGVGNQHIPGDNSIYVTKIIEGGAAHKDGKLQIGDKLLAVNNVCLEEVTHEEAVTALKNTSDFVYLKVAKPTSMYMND

Sequence of FRMPD3, Q5JV73 (Q5JV73 12-100): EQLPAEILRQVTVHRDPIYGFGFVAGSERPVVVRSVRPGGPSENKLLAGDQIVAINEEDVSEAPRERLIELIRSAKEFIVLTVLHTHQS

On to GDHLDRRVVL [VAC14, Q08AM6], for which the pKd entry in assay [1] is “below the threshold”; in assay [2] it was 3.69; in [3], “below the threshold”; in assay [4] it was “below the threshold”; in assay [5] it was 3.53; in assay [6] it was 3.48. Further, the pKd entry in assay [7] was “below the threshold”; in assay [8] it was 3.7; in assay [9], 3.82; in assay [10], “below the threshold”; in [11], “below the threshold”; in assay [12], “below the threshold”. Also, the pKd entry was “below the threshold” in [13]; “below the threshold” in assay [14]; 3.51 in assay [15]; “below the threshold” in assay [16]; “below the threshold” in assay [17]; “below the threshold” in assay [18]. The pKd result in [19] was “below the threshold”; in assay [20], “below the threshold”; in assay [21], “below the threshold”; in assay [22] it was “below the threshold”; in assay [23], “below the threshold”; in assay [24], 3.98.

For VGIERETDVL [EZH1, Q92800], the negative-log Kd (pKd) was 3.49 in assay [1]; “below the threshold” in [2]; “below the threshold” in assay [3]; “below the threshold” in [4]; “below the threshold” in [5]; 3.67 in assay [6]. In addition, the pKd result in assay [7] was “below the threshold”; in assay [8] it was “below the threshold”; in assay [9] it was “below the threshold”; in [10], “below the threshold”; in assay [11] it was 4.63; in assay [12] it was “below the threshold”. Also, the pKd result in assay [13] is “below the threshold”; in assay [15], “below the threshold”; in [16], “below the threshold”; in assay [17], 3.53; in [18], “below the threshold”; in assay [19], “below the threshold”. Also, the negative-log Kd (pKd) in assay [20] is 4.36; in assay [21], “below the threshold”; in assay [22], “below the threshold”; in assay [23], “below the threshold”; in assay [24], 3.85.

Regarding KSTTRSSSSC [NDE1, Q9NXR1;Q9NXR1-2], the pKd result in assay [3], in assay [4], in assay [5], in assay [6], in [7] and in [8] was “below the threshold” throughout. The negative logarithm of the Kd (pKd) result in assay [10], in assay [11], in assay [12], in assay [13], in assay [14] and in [15] was “below the threshold” each time. The pKd entry in assay [16], in assay [18], in [19], in assay [20], in assay [21] and in [23] was “below the threshold” in each case. Also, the negative-log Kd (pKd) entry in assay [24] is “below the threshold”.

In the case of EYRKDNKVAA [LSM14A, Q8ND56;Q8ND56-2], the pKd in assay [1] was 4.1; in assay [2], “below the threshold”; in assay [3], “below the threshold”; in [4], “below the threshold”; in assay [5], “below the threshold”; in [6], “below the threshold”. Besides, the pKd entry in assay [7], in assay [8], in [9], in assay [10], in [11] and in assay [12] was “below the threshold” in each case. In addition, the pKd entry in assay [13], in assay [14], in assay [15], in [16], in [18] and in assay [19] was “below the threshold” in each case. Moreover, the negative logarithm of the Kd (pKd) entry in assay [20], in assay [21], in assay [22] and in [24] was “below the threshold” throughout.
